The text below walks through data of patent US20110294728, “Antiviral Polypeptides” (published 2011).

Series [1] has as its target HIV-1 reverse transcriptase p66/p51 heterodimer (HIV-1 (BH10), UniProt P03366;P03366 P03366:600-1159,P03366:600-1039). Kind of series: steady-state fluorescence quenching; 50 mM Tris-HCl pH 8.0, 50 mM KCl, 10 mM MgCl2, 1 mM DTT, 25 C. The following applies: tags: recombinant from E. coli; His-tagged and untagged preparations described, form used in the titration not specified; label: 6-FAM at primer 3' end; primer/template with 5' single-stranded template overhang.

For series [2], the target named is HIV-1 reverse transcriptase p66/p51 in complex with PAW peptide (HIV-1 (BH10), UniProt P03366;P03366 P03366:600-1159,P03366:600-1039). Kind of series: steady-state fluorescence quenching; 10 uM PAW; 50 mM Tris-HCl pH 8.0, 50 mM KCl, 10 mM MgCl2, 25 C. Conditions: protein: synthetic; label: 6-FAM at primer 3' end; primer/template with 5' single-stranded template overhang.

In series [3] the target is HIV-1 reverse transcriptase p66/p51 in complex with FITC-PAW (HIV-1 (BH10), UniProt P03366;P03366 P03366:600-1159,P03366:600-1039). Kind of series: quenching of FITC-PAW pre-bound to RT on titration with unlabelled p/t; 10 mM MgCl2, 25 C. Conditions: tags: PAW with C-terminal Cys-FITC; primer/template with 5' single-stranded template overhang.

B1: 19/36-mer DNA/DNA primer/template (HIV-1 PBS) (dsDNA)
DNA 1: TCCCTGTTCGGGCGCCACT
DNA 2: TGTGGAAAATCTCATGCAGTGGCGCCCGAACAGGGA
Take B1: the results for the Kd in series [1] and in series [2] were 22 nM and 99 nM, respectively.

B2: 19/36-mer (printed 18/36) DNA/DNA primer/template, unlabelled (dsDNA)
DNA 1: TCCCTGTTCGGGCGCCACT
DNA 2: B1 DNA 2
Consider B2, for which, in series [3], the Kd was 66.5 nM.
